# Laboratory results published in publication PMC12494035.
# Molecular target: coatomer (COPI heptamer) (Mus musculus) (UniProt Q8CIE6)
# Test: cryo-EM structure; cryo-electron tomography and subtomogram averaging of COPI-coated vesicles and buds from an in vitro budding reaction: liposomes with 3 mol % PI4P (0.23 mg/ml), GTPγS 0.5 mM, COPI 1.36 μM, Arf1 20 μM, ARNO 4 μM, GOLPH3 9 μM; 50 mM Hepes pH 7.2, 125 mM KOAc, 30 min at 37°C; 7.5 Å map, model by rigid body fitting of domains from AlphaFold 3 predictions
# Arf1, sequence (P84077 whole entry, the tested form may be a part): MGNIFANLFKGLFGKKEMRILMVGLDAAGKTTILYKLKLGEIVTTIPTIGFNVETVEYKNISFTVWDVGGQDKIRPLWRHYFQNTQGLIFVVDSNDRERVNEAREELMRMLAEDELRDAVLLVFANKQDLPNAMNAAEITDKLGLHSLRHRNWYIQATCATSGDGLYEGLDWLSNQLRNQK
substance,measurement,value
Arf1 (from UniProt P84077 1-181) (natural protein),stoichiometry N (per COPI heptamer),2
